Assay results as given in paper PMC5601406 (2017).

Target: SN (Staphylococcus nuclease scaffold protein) (Staphylococcus aureus, UniProt Q5HHM4)
Assay: ELISA

B1: SmpB (protein)
chain: MSKKNSKNKAGSNTIALNRSARHEYFIEEKIEAGLSLQGWEVKSLRAGKANISEAYVIFRDGEAYLFGSSFLPLQAASSHVVCDPTRTRKLLLSRRELDKLESLIARQGYTVVPLALYWKQCWVKVEIGLVKGKKEHDKREDTKAREWDREKARIMKNKHRG
Kd: 1380 nM
